The test concerns the target T1, D-二聚体抗原(购自菲鹏).
T1 chain 1: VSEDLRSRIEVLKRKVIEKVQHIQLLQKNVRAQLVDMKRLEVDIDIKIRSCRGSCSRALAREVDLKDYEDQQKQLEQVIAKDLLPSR
T1 chain 2: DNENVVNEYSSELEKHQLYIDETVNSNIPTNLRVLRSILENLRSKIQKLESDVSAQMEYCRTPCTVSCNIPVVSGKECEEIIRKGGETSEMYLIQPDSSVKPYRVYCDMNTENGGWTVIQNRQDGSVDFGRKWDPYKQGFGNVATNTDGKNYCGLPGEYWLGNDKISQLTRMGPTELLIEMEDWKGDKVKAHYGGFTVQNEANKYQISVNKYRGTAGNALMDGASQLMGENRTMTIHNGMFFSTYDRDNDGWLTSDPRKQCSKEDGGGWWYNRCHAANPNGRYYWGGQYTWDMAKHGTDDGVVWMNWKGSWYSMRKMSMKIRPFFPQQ
T1 chain 3: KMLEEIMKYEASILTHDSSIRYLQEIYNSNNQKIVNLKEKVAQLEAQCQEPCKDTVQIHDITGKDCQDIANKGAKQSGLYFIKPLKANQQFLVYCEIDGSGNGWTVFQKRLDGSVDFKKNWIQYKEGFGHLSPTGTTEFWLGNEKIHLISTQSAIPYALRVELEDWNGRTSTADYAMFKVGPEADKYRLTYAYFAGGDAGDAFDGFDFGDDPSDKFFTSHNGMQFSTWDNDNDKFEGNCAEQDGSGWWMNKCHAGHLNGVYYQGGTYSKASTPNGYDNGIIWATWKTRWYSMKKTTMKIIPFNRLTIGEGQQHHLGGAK
Description: BLI, AMC sensor, antibody immobilised, D-dimer antigen in serial dilution. For orientation: BLI is a label-free optical method that tracks binding on a fibre tip over time.

Experimental findings from CN116143917A (DONGGUAN PENGZHI BIOTECHNOLOGY CO LTD, dated 2023) are described below.

As a reminder, the Kd is the free concentration of one partner at which half of the binding sites on the other are occupied at equilibrium, for simple one-to-one binding. The low end stands for a tighter complex, the high end for a looser complex. Broadly, the koff is the first-order rate constant of dissociation. A higher koff goes with a short-lived complex. Usually kon stands for the rate constant with which the complex forms. For 对照抗体 (antibody), the Kd was 21.4 nM, the koff worked out at 0.000132 s⁻¹ and the kon amounted to 6170 M⁻¹ s⁻¹.

B1: 14D2RMb-1 (antibody, mouse IgG2a, kappa)
heavy: QVQLQQSGPELVRPGVSVKISCKGSGYRFTDYSIHWLKQSHAKSLEWIGVISTYSGNPDYNQKFKGKATMTVDQSSSTAYMELARLTSDDSAIYYCSRMNDYYGDYFFDHWGQGTTLIVSSAKTTAPSVYPLAPVCGDTTGSSVTLGCLVKGYFPEPVTLTWNSGSLSSGVHTFPAVLQSDLYTLSSSVTVTSSTWPSQSITCNVAHPASSTKVDKKIEPRGPTIKPCPPCKCPAPNLLGGPSVFIFPPKIKDVLMISLSPIVTCVVVDVSEDDPDVQISWFVNNVEVHTAQTQTHREDYNSTLRVVSALPIQHQDWMSGKEFKCKVNNKDLPAPIERTISKPKGSVRAPQVYVLPPPEEEMTKKQVTLTCMVTDFMPEDIYVEWTNNGKTELNYKNTEPVLDSDGSYFMYSKLRVEKKNWVERNSYSCSVVHEGLHNHHTTKSFSRTPGK
light: DVVMTQTPLSLFVDLGDPASISCRSSQSLVHTNGNTYLHWYLQKPGQSPRLLIYKVSNRFSGVPDRFSGSGSGTDFTFKISSVEAEDLGLYFCSQSRHVPLTFGAGTKLELKRADAAPTVSIFPPSSEQLTSGGASVVCFLNNFYPKDINVKWKIDGSERQNGVLNSWTDQDSKDSTYSMSSTLTLTKDEYERHNSYTCEATHKTSTSPIVKSFNRNEC
notes: Recombinant monoclonal antibody made in CHO cells from hybridoma genes; also called 14D2RMb-1抗体
B1 came in with a Kd of 9.9 nM, a koff of 0.00545 s⁻¹ and an on-rate constant (kon) of 550000 M⁻¹ s⁻¹.
